# Results taken from IntAct's records for PubMed 16893902.
# B1: Protein sprouty homolog 1 (Homo sapiens), O43609 (parent)
# chain: MDPQNQHGSGSSLVVIQQPSLDSRQRLDYEREIQPTAILSLDQIKAIRGSNEYTEGPSVVKRPAPRTAPRQEKHERTHEIIPINVNNNYEHRHTSHLGHAVLPSNARGPILSRSTSTGSAASSGSNSSASSEQGLLGRSPPTRPVPGHRSERAIRTQPKQLIVDDLKGSLKEDLTQHKFICEQCGKCKCGECTAPRTLPSCLACNRQCLCSAESMVEYGTCMCLVKGIFYHCSNDDEGDSYSDNPCSCSQSHCCSRYLCMGAMSLFLPCLLCYPPAKGCLKLCRRCYDWIHRPGCRCKNSNTVYCKLESCPSRGQGKPS
# B2: Protein sprouty homolog 2 (Homo sapiens), O43597 (parent)
# chain: MEARAQSGNGSQPLLQTPRDGGRQRGEPDPRDALTQQVHVLSLDQIRAIRNTNEYTEGPTVVPRPGLKPAPRPSTQHKHERLHGLPEHRQPPRLQHSQVHSSARAPLSRSISTVSSGSRSSTRTSTSSSSSEQRLLGSSFSSGPVADGIIRVQPKSELKPGELKPLSKEDLGLHAYRCEDCGKCKCKECTYPRPLPSDWICDKQCLCSAQNVIDYGTCVCCVKGLFYHCSNDDEDNCADNPCSCSQSHCCTRWSAMGVMSLFLPCLWCYLPAKGCLKLCQGCYDRVNRPGCRCKNSNTVCCKVPTVPPRNFEKPT
# What was measured:
# cbl_human CBL, P22681 [1] = variants of: B1; details: with cbl_human CBL
# grb2_human GRB2, P62993 [2] = variants of: B1; details: with grb2_human GRB2, P62993
# cbl_human CBL, P22681 [3] = variants of: B2; details: with cbl_human CBL; remark: listed apart in the source
# grb2_human GRB2, P62993 [4] = variants of: B2; details: with grb2_human GRB2, P62993; remark: listed apart in the source
"effect of a mutation on the interaction (cbl_human CBL, P22681 [1])","effect of a mutation on the interaction (grb2_human GRB2, P62993 [2])","effect of a mutation on the interaction (cbl_human CBL, P22681 [3])","effect of a mutation on the interaction (grb2_human GRB2, P62993 [4])",Variant
disrupting interaction,decreasing interaction,,,Y53F
,,disrupting interaction,decreasing interaction,Y55F
